Assay results from patent publication US6824972 (BAYLOR COLLEGE OF MEDICINE, dated 2004).

Target: T1, NF-κB relA subunit (human, UniProt Q04206 1-551)
T1 construct: also called re1A; p65
Test: EMSA with supershift (antisera to p50 and relA), nuclear extracts of TNF-stimulated normal and patient G embryonic fibroblasts, 32P-labelled MHC-1 probe

T1 sequence (Q04206 whole entry): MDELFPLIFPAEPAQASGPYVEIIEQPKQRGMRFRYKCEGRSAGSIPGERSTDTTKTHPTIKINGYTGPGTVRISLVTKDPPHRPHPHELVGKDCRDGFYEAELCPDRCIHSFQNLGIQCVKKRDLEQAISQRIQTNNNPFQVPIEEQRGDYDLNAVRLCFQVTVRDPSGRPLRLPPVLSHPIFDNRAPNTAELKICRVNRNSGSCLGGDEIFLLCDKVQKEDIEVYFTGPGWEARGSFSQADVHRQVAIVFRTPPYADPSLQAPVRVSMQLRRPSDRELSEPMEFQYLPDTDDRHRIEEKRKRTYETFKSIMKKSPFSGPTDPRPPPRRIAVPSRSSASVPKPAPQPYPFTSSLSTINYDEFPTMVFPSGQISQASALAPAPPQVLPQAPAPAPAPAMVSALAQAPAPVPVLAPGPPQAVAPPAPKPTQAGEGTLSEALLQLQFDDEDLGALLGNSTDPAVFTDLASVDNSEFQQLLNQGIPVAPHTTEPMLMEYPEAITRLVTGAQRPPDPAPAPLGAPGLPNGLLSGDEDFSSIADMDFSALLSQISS

binding result: binds
B1: NF-κB p50 subunit (other, human, UniProt P19838 1-433, looked up)
chain: MAEDDPYLGRPEQMFHLDPSLTHTIFNPEVFQPQMALPTDGPYLQILEQPKQRGFRFRYVCEGPSHGGLPGASSEKNKKSYPQVKICNYVGPAKVIVQLVTNGKNIHLHAHSLVGKHCEDGICTVTAGPKDMVVGFANLGILHVTKKKVFETLEARMTEACIRGYNPGLLVHPDLAYLQAEGGGDRQLGDREKELIRQAALQQTKEMDLSVVRLMFTAFLPDSTGSFTRRLEPVVSDAIYDSKAPNASNLKIVRMDRTAGCVTGGEEIYLLCDKVQKDDIQIRFYEEEENGGVWEGFGDFSPTDVHRQFAIVFKTPKYKDINITKPASVFVQLRRKSDLETSEPKPFLYYPEIKDKEEVQRKRQKLMPNFSDSFGGGSGAGAGGGGMFGSGGGGGGTGSTGPGYSFPHYGFPTYGGITFHPGTTKSNAGMKHG
